Laboratory results published in patent US20030125515A1 (published 2003).

What was measured:
[1] = target: gp41 of HIV JRFL (from the JRFL gp160 gene, on pseudotyped virus) (HIV-1 JRFL); assay: cell-based or functional assay
[2] = target: gp41 of HIV HXB2 (from the HXB2 gp160 gene, on pseudotyped virus) (HIV-1 HXB2, UniProt P04578 33-856); assay: cell-based or functional assay

B1: end-locked five-helix protein having SEQ ID NO.: 2 (designed binder)
chain: MCGGGSQLLSGIVQQQNNLLRAIEAQQHLLQLTVWGIKQLQASGGSGGSWMEWDREINNYTSLIHSLIEESQNQQEKNEQELLSGGCGGSQLLSGIVQQQNNLLRAIEAQQHLLQLTVWGIKQLQASGGCGGSWMEWDREINNYTSLIHSLIEESQNQQEKNEQELLSGGSGGSQLLSGIVQQQNNLLRAIEAQQHLLQLTVWGIKQLQASGGGC
modifications: disulfide bond between the cysteine of the N-terminal linker and the cysteine of inside linker 2; disulfide bond between the cysteine of the C-terminal linker and the cysteine of inside linker 3 (as in FIG. 3b)
**Q.** How did the “EC50 in the virus-cell fusion assay (HIV luciferase assay, HOS-CD4-CCR5 cells)” value [1] turn out when B1 was run?
**A.** 0.75 nM

**Q.** What about the “EC50 in the virus-cell fusion assay (HIV luciferase assay, HOS-CD4 cells)” value [2] of the same binder?
**A.** 15 nM
